Test results reported in article PMC10202398, “Nitrite reductase activity in F420-dependent sulphite reductase (Fsr) from Methanocaldococcus jannaschii” (Access Microbiology, 2023).

T1: MjFsrI (F420-dependent sulphite reductase, Fsr) (Methanocaldococcus jannaschii, UniProt Q58280)
T1 construct: native, purified from sulphite-grown Mj cells; untagged
T1 sequence (Q58280 1-620): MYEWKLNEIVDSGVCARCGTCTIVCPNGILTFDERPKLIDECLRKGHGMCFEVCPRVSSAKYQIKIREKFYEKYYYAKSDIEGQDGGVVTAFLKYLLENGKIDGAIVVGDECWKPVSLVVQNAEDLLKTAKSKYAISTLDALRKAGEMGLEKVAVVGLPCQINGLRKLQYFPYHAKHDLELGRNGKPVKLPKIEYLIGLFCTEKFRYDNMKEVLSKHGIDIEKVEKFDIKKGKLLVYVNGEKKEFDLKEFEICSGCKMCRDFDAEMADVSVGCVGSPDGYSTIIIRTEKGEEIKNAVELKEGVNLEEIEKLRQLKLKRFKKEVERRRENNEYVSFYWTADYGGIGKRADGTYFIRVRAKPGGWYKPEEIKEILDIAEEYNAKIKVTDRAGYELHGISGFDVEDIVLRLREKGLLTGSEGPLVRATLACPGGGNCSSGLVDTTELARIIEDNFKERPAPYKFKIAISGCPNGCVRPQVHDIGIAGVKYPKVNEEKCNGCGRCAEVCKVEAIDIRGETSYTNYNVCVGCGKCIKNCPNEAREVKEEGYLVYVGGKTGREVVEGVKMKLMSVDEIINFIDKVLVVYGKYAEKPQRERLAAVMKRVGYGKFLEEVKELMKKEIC


Key:
[1] = target: T1, MjFsrI (F420-dependent sulphite reductase, Fsr); assay: non-degradative extraction from purified protein, reversed-phase HPLC; type: binding; settings: native co-purified flavin, 25 mM potassium phosphate pH 7
purified protein [2] = substrate: NO; assay: purified protein; type: biochemical, Methanocaldococcus jannaschii; settings: 40 µM F420H2, 25-600 µM hydroxylamine, 100 mM potassium phosphate pH 7
purified protein [3] = substrate: O=NO; assay: purified protein; type: biochemical, Methanocaldococcus jannaschii; settings: 40 µM F420H2, 5-150 µM nitrite, 100 mM potassium phosphate pH 7

| Molecule | non-degradative extraction from purified protein, reversed-phase HPLC [1] | Km (purified protein [2]) | Km (purified protein [3]) |
| --- | --- | --- | --- |
| Cc1cc2nc3c(=O)[nH]c(=O)nc-3n(C[C@H](O)[C@H](O)[C@H](O)COP(=O)(O)OP(=O)(O)OC[C@H]3O[C@@H](n4cnc5c(N)ncnc54)[C@H](O)[C@@H]3O)c2cc1C [FAD] | Reversed-phase HPLC identified the flavin extracted from MjFsrI as FAD | – | – |
| MjFsrI (F420-dependent sulphite reductase, Fsr) (Methanocaldococcus jannaschii DSM 2661) (protein, native, purified from sulphite-grown Mj cells; untagged) MYEWKLNEIVDSGVCARCGTCTIVCPNGILTFDERPKLIDECLRKGHGMCFEVCPRVSSAKYQIKIREKFYEKYYYAKSDIEGQDGGVVTAFLKYLLENGKIDGAIVVGDECWKPVSLVVQNAEDLLKTAKSKYAISTLDALRKAGEMGLEKVAVVGLPCQINGLRKLQYFPYHAKHDLELGRNGKPVKLPKIEYLIGLFCTEKFRYDNMKEVLSKHGIDIEKVEKFDIKKGKLLVYVNGEKKEFDLKEFEICSGCKMCRDFDAEMADVSVGCVGSPDGYSTIIIRTEKGEEIKNAVELKEGVNLEEIEKLRQLKLKRFKKEVERRRENNEYVSFYWTADYGGIGKRADGTYFIRVRAKPGGWYKPEEIKEILDIAEEYNAKIKVTDRAGYELHGISGFDVEDIVLRLREKGLLTGSEGPLVRATLACPGGGNCSSGLVDTTELARIIEDNFKERPAPYKFKIAISGCPNGCVRPQVHDIGIAGVKYPKVNEEKCNGCGRCAEVCKVEAIDIRGETSYTNYNVCVGCGKCIKNCPNEAREVKEEGYLVYVGGKTGREVVEGVKMKLMSVDEIINFIDKVLVVYGKYAEKPQRERLAAVMKRVGYGKFLEEVKELMKKEIC | – | 112.4 ± 14.4 µM | 8.9 ± 0.9 µM |
